The supplement of paper PMC9170038

Test system: MS2 coat protein
Assay: apparent KD of MS2 coat protein; designed switch direction (-1 OFF switch, 1 ON switch): 1; higher = weaker reporter binding
Summary of the method: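 RNA switches sharing common flanks were transcribed by stalled E. coli RNA polymerase on Illumina chips. A doubling series of SNAP-549-labelled MS2 coat protein, from 0.7 or 1.5 nM to 3 µM, was applied in Tris-HCl pH 7.5 buffer with KCl, MgCl2, BSA, DTT, tRNA and Tween-20. Each step lasted 0.8–1.5 h at the bottom of the series and 10–20 min at the top. Normalised cluster fluorescence was curve-fitted, giving apparent KD as the per-design median over clusters.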

[1] = input ligand: microRNA oligo, concentration not stated
[2] = Eterna round: R95, input ligand: FMN 200 uM
[3] = Eterna round: R95, input ligand: microRNA oligo, concentration not stated
[4] = Eterna round: R95, input ligand: none

Sequence | apparent KD of MS2 coat protein (input ligand: FMN 200 uM) [nM] | apparent KD of MS2 coat protein [1] [nM] | apparent KD of MS2 coat protein (input ligand: none) [nM] | apparent KD of MS2 coat protein [2] [nM] | apparent KD of MS2 coat protein [3] [nM] | apparent KD of MS2 coat protein [4] [nM]
CCGAUGAUAGGACAGGAUAUGACUGUCGUCACAUGAGGAUCACCCAUGUCCCGGCAAUGCCACCGUUAGAAGGGUCCCAUCUCGG [Uslainarin] (Eterna round: R96, puzzle: Same State 2) | 18.2 | 18.6 | 23.8 | – | – | –
GGUCCAGCCUGAGCUGGACAAAAGCAUGUACAUGAGGAUCACCCAUGUCAUGUAUAAGCUUUUUGCUCGUCUUAAAA [JL mod - D87 - 11] (puzzle: Sensor for hsa-mir-208a) | – | – | – | 20.4 | 10.5 | 20
UAGCGCUGUCGAGAGGAUAUGCGGUGAUGGACAUGAGGAUCACCCAUGUUAGCGAUAGCAUUACGGUAGAAGGCUCUACAGCUGU [salish99_ss2_r3_093] (puzzle: Same State 2) | – | – | – | – | 177 | –
UUAAGCAACGGGCAGGAUAUGUAUUAAUAUACAUGAGGAUCACCCAUGUGCAGGUGUAACACCUGACAGAAGGGCCAAUCGCUGC [Soteed - 10] (puzzle: Same State 2) | – | – | – | 82.1 | 509 | 515
GUGGUCUGACAUGAGGAUCACCCAUGUGGAAUAAAUAAGGGUUAGGAUAUCUUGAGGAUCACCCAAGAGAAGGGAUGGUUGGUG (Eterna round: R96, puzzle: Same State NG 3) | 125 | 90.7 | 124 | – | – | –
AUUAUUUCUGCAGGAUAUGAUUAACAUGAGGAUCACCCAUGUGGUGUUGUGAGUAAGGAGAGUGAUCAGAAGGGCAUUUUUUUU [JMF's solution 62] (Eterna round: R96, puzzle: Same State NG 2) | 630 | 211 | 313 | – | – | –
GGUCCAGCCUGAGCUGGACAAAAGCAUGUACAUGAGGAUCACCCAUGUCAUGUACAAGCUUUUUGCUCGUCUAAAGA [Mat - hsa-mir-208a - 91] (puzzle: Sensor for hsa-mir-208a) | – | – | – | 517 | 17.7 | 705
AUUUUUAAUGCAGGAUAUGAUUAACAUGAGGAUCACCCAUGUGGUGUUGUGAGUAAGGAGAGUGAUCAGAAGGGCAUUUUGUUU [JMF's solution 83] (Eterna round: R96, puzzle: Same State NG 2) | 747 | 400 | 687 | – | – | –
CUUGCCCAGUCAGGAUAUGGGAAAGGAAGUGUACCAGAAGGGACAAGAAAGGACAUGAGGAUCACCCAUGUCGGGCAGGCGAGA [PowerStrip SSNG 1.23] (Eterna round: R96, puzzle: Same State NG 1) | 32.8 | 82.3 | 97.1 | – | – | –
UUUGGGUGGCUGGAGGAUAUCCUGGUUGUUACAUGAGGAUCACCCAUGUGCCGCGCGGUGCGCUGGGAGAAGGCUGGCGGCCGUU (puzzle: Same State 2) | – | – | – | – | 71.8 | –
AUUAUACAUGAGGAUCACCCAUGUAAUUAAUUAAUUAAGAUCUAGGAUAUCAGCUCGAAUAGAGCUGAGAAGGAGAUCACAUGU [SSNG3/20-C1] (Eterna round: R96, puzzle: Same State NG 3) | – | 24.2 | – | – | – | –
UAGUUGGUGGUAGGAUAUGUAGGAUAUGGCGAGAGCUAAGCUUGGAAGUCACUUCAGCCAGAAGGACAGAAGGACCAGUAGCUU [pwkr ssNG2 2FMN + F9.10] (Eterna round: R96, puzzle: Same State NG 2) | 105 | 24.2 | 79.1 | – | – | –
GUAUCUACAGGUUGCAAUGCUCGUCGGAUACAUGAGGAUCACCCAUGUUAUAGCCCUGUGCUUGCGCAGGGCUGAUU [Sensor for hsa-mir-208a ( MOD of Tearor )] (puzzle: Sensor for hsa-mir-208a) | – | – | – | 46.8 | 39.4 | 49.5
AUAAACAGGCUAGGAUAUCCGGAAACUACAGGACACGACCCUGUGGACAUGAGGAUCACCCAUGUGGAGAAGGAGCCACAUGAA [Onvete] (Eterna round: R96, puzzle: Same State NG 2) | 31.4 | 223 | 145 | – | – | –
AAAAUUGAAUUACAUCUGCUCGUCAUACAACAUGAGGAUCACCCAUGUAACAUCAAACAACCAACCAAACACAAAUC [Ceeslage] (Eterna round: R96, puzzle: Sensor for hsa-mir-208a) | 20.1 | 17.5 | 22.3 | – | – | –
AUUAUACAUGAGGAUCACCCAUGUCAACAAAGUCGAGGAUAUGGGCAAAUAAAAUAAGAACCAGAAGGCGAAUAAU [salish99_ss1_r3_069] (puzzle: Same State 1) | – | – | – | 51.3 | 155 | 259
GUUACAUGAGGAUCACCCAUGUAUGUGUGGGAGUAAGUGUCUUAGGAUAUCUAUGAGUUAAUUUAAGAGAAGGAAGAUUGUUGU [JMF's solution 74] (Eterna round: R96, puzzle: Same State NG 3) | 97.2 | 63.4 | 77.5 | – | – | –
AUUAUACAUGAGGAUCACCCAUGUCAAUGUAGUCGAGGAUAUGGGCAGCUGUGAGGCGUACUAGAAGGCGAAGAGA [Mat - Same State 1 - Mod of JL - D9] (puzzle: Same State 1) | – | – | – | 59.9 | 192 | 222
UUACUCAUGUAAGGAUAUGCAGCCGAAACGGCUGCAGAAGGUACUAUAAUACAUGAGGAUCACCCAUGUCUCUAUUAUUUAGUU [Mat - Same State NG 1 - JL mod - D94] (Eterna round: R96, puzzle: Same State NG 1) | 73.4 | 38.2 | 58 | – | – | –
UCUUGGUUUUUGCUCGUUUUUUGUGUUGAACAUGAGGAUCACCCAUGUAUUAUACGGUCCGGUUUAAUAAUAAUCCG [JMF 81] (puzzle: Sensor for hsa-mir-208a) | – | – | – | 24.2 | 14.6 | 27.3
GUAGCAUACCGAGGAUAUUCAUAUAAUAUUACAUGAGGAUCACCCAUGUAUAGGCGAAAGCCUUGGGAGAAGGCGGAAUGCUAC [Xeonanis - 20 Mod61] (Eterna round: R96, puzzle: Same State NG 2) | 13.2 | 24.9 | 28.6 | – | – | –
GUAGAUAUAGAGGAGGAUAUUCGAUGAGGAACAUGAGGAUCACCCAUGUAAGAGAGAGAUGAUGAGAAGAAGGCUUAGAGGGAUG [Altered State 2-4 - Jieux - Same State 2] (puzzle: Same State 2) | – | – | – | 25.1 | 35.8 | 36.4
UAGGAUCAACGAGGAUAUAAUAGGUUCUAUUCGUGAUAUUGCGUACAUGAGGAUCACCCAUGUUAUUAGAAGGCGUAUGGGUUU [JR_SSNG2_Sub085] (Eterna round: R96, puzzle: Same State NG 2) | 78.7 | 69.9 | 92.8 | – | – | –
CGGCGCUGUUGAGAGGAUAUGCGGUGAUGGACAUGAGGAUCACCCAUGUUAGCGAUAGCAUUACGGUAGAAGGCUCUACAGCUGC [Soteed Omei mod 6] (puzzle: Same State 2) | – | – | – | – | 18.9 | –
